Test system: MS2 coat protein
Assay: apparent KD of MS2 coat protein; designed switch direction (-1 OFF switch, 1 ON switch): -1; higher = weaker reporter binding
Method in brief: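 The buffer was Tris-HCl pH 7.5 with KCl, MgCl2, BSA, DTT, tRNA and Tween-20. In it, SNAP-549-labelled MS2 coat protein was titrated in doubling steps from 0.7 or 1.5 nM to 3 µM over chip-bound RNA switches transcribed by stalled E. coli RNA polymerase on Illumina chips. Apparent KD is the per-design median over clusters of curve fits to normalised fluorescence.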

[1] = Eterna round: R95, input ligand: microRNA oligo, concentration not stated
[2] = input ligand: microRNA oligo, concentration not stated
[3] = Eterna round: R95, input ligand: FMN 200 uM
[4] = Eterna round: R95, input ligand: none

| Sequence | apparent KD of MS2 coat protein (input ligand: FMN 200 uM) | apparent KD of MS2 coat protein (input ligand: none) | apparent KD of MS2 coat protein [1] | apparent KD of MS2 coat protein [2] | other results |
| --- | --- | --- | --- | --- | --- |
| UUCACAUGGACAUAAGAUCACAUGAGGAUCACCCAUGUGAAUAACAAGCUUUUUGCUCGUCUUAUGUCCAAUAAUAU [Stov1/14-A3] (Eterna round: R97, puzzle: Sensor, turn-off variant 1) | 13.2 nM | 13.2 nM |  |  |  |
| UUCAGACAUGAGGAUCACCCAUGUGAGGAUAUGAUGCAGCAGUGGUCUACGCUGUGCAUCAGAAGGCACAUGUG (puzzle: Exclusion 1) |  |  | 99.6 nM |  |  |
| UUCAUGUAAGGAUAUACCUCGAGCUGAUGAGAGUCUCAAAUGUAGAAGGUACAUGAGGAUCACCCAUGUACAGG [Eternabot (Original) Solution 5] (Eterna round: R97, puzzle: Exclusion 4) | 65.2 nM | 42 nM |  |  |  |
| UUCAUGUGAGGAUAUGUGAUCUGCUUUCUGUGUAGAUGAUCACAGAAGGCACAUGAGGAUCACCCAUGUAGAUC [Ex4 - 3 - 29] (puzzle: Exclusion 4) |  |  | 77.3 nM |  |  |
| UUCCUCAUAACAUGAGGAUCACCCAUGUAUUAAUAGAUAACUGAGGAUAUACUAAUAAUGUUUAUGUAGAAGGCAGAUACAGAU [JR_ExcNG3_Sub014] (Eterna round: R96, puzzle: Exclusion NG 3) |  |  |  | 40 nM |  |
| UUCCUGUCAGGAUAUGACUAGAUGCACGAAAGUGUUUUUAGUUAGAAGGGACAUGAGGAUCACCCAUGUAGUCC [Bring Us a Shrubbery-19] (puzzle: Exclusion 4) |  |  | 21.9 nM |  |  |
| UUCGUGCAGCUUUGCUGUACGCGUACAUGAGGAUCACCCAUGUAGGAUAUGGUAGGCUUUGCUUACUAGAAGGAUAGAGUGAUC [JL EXNG3 1.29] (Eterna round: R96, puzzle: Exclusion NG 3) | 80.7 nM | 95.7 nM |  | 67.8 nM |  |
| UUCGUGUAAGGAUAUACGACCCAUCCCAUUGGGAUGGGCACGUAGAAGGUACAUGAGGAUCACCCAUGUGCUCC [Ceacequa] (Eterna round: R96, puzzle: Exclusion 4) | 298 nM | 41.4 nM |  | 34.4 nM |  |
| UUCUAUUCAGGAUAUACAUGAGGAUCACCCAUGUGAUUUGCCUCGCGGAAGACUAGACGUAGAAGGGAGUCCCU [Eternabot (L2) Solution 7] (Eterna round: R97, puzzle: Exclusion 3) | 91.3 nM | 111 nM |  |  |  |
| UUCUCGUCAGGAUAUUUGUUGUUGUUGGAAACGGCGGCGGCGGAGAAGGGACAUGAGGAUCACCCAUGUCUGGU [-27.7, -24.8 kcal, 20% A] (Eterna round: R97, puzzle: Exclusion 4) | 28.5 nM | 21.2 nM |  |  |  |
| UUGAAGUCGUCAGGAUAUAGUUUUAAUGUCAUGCGUAUGUUCUUACAUGAGGAUCACCCAUGUCGCUAGAAGGGACUAAAGAUU [JR_ExcNG2_Sub010] (Eterna round: R96, puzzle: Exclusion NG 2) | 43.9 nM | 44.4 nM |  | 33.4 nM |  |
| UUGAUUCAUUCCUCCAUAAACAUGAGGAUCACCCAUGUAAGUGAGGAUAUAGUUGGAGUAGUAUACUAGAAGGCACUUAGAUAU [JR_ExcNG3_Sub047] (Eterna round: R96, puzzle: Exclusion NG 3) |  |  |  | 8.77 nM |  |
| UUGCAGUCGUCAGGAUAUAGUAUUACGGCCUUUCAUUUCUUCAUACAUGAGGAUCACCCAUGUCGCUAGAAGGGCUUAUCGCUU [salish99_ExNG2_r04_108] (Eterna round: R96, puzzle: Exclusion NG 2) |  |  |  | 11.1 nM |  |
| UUGUAAUGAUUAGGAUAUUAUUAAUAGAACUUUAUGAUAUACAUGAGGAUCACCCAUGUUACUUAUAAGAAGGAAUCGUAUUAU [JR_ExcNG2_Sub092] (Eterna round: R96, puzzle: Exclusion NG 2) |  |  |  | 15.7 nM |  |
| UUGUGCACGCUGCGGUCCUACAUGAGGAUCACCCAUGUGGUCUGGUGGCGUGGGUCGCCGGACUUGGCUCGUCUUGA [salish99_S_TOV1_R5_027] (Eterna round: R97, puzzle: Sensor, turn-off variant 1) | 18.4 nM | 18.8 nM |  |  |  |
| UUGUUACAUGAGGAUCACCCAUGUGAGGAUAUGGCCCGCCCGGCGUGAGCUGGUUUUGUCAGAAGGCGCAUAGG [salish99_ex1_r4_024] (Eterna round: R97, puzzle: Exclusion 1) | 79.6 nM | 54.2 nM |  |  |  |
| UUGUUAUAUGUAGGAUAUGCAUAUUAUUAUUAUGCAGAAGGACAUGAGGAUCACCCAUGUGUAUUAUUAUUAUAUAUUAUAUAU [Title] (Eterna round: R96, puzzle: Exclusion NG 1) |  |  |  | 17.4 nM |  |
| UUGUUGUAUGUAGGAUAUGCAUAUUAUUAUUGUGCAGAAGGACAUGAGGAUCACCCAUGUAUAUUAUUAUUAUAUGUUAUAUAU [Title] (Eterna round: R96, puzzle: Exclusion NG 1) |  |  |  | 22.1 nM |  |
| UUGUUGUAUGUAGGAUAUGCAUGUUAUUAUUAUGCAGAAGGACAUGAGGAUCACCCAUGUGUAUUAUUAUUAUAUAUUAUAUAU [Title] (Eterna round: R96, puzzle: Exclusion NG 1) |  |  |  | 15.4 nM |  |

| Sequence | apparent KD of MS2 coat protein (input ligand: FMN 200 uM) | apparent KD of MS2 coat protein (input ligand: none) | apparent KD of MS2 coat protein [1] | apparent KD of MS2 coat protein [2] | other results |
| --- | --- | --- | --- | --- | --- |
| UUGUUGUAUGUAGGAUAUGCGUAUUAUUAUUGGGCAGAAGGACAUGAGGAUCACCCAUGUAUGUUGUUGUUAUAUAUUAUAUAU [Title] (Eterna round: R96, puzzle: Exclusion NG 1) | 66.4 nM | 47.8 nM |  | 35.8 nM |  |
| UUGUUGUGUGUAGGAUAUGCAUAUUAUUAUUAUGCAGAAGGACAUGAGGAUCACCCAUGUAUAUUAUUAUUAUAUAUUAUAUAU [Title] (Eterna round: R96, puzzle: Exclusion NG 1) |  |  |  | 22.6 nM |  |
| UUUAAUGGAAUUAAGAUCACAUGAGGAUCACCCAUGUAUAUAUAGGAUAUCAGCUCGUUUAGAGCUGAGAAGGAUAUAUACAUA [ExNG3/6-B2] (Eterna round: R96, puzzle: Exclusion NG 3) | 90.1 nM | 356 nM |  | 119 nM |  |
| UUUAAUUUUUUUUUUUUACAAGCUUUUUGCUCGUCUUAUACAUGAGGAUCACCCAUGUAGAUGGGAAAUGAAUUAUC [JMF 98] (puzzle: Sensor v3, turn-off variant 2) |  |  | 144 nM |  | apparent KD of MS2 coat protein [3]: 26.1 nM; apparent KD of MS2 coat protein [4]: 22.7 nM |
| UUUAAUUUUUUUUUUUUACAAGCUUUUUGCUCGUCUUAUACAUGAGGAUCACCCAUGUGAAUGGAGGAUAAAUUAUC [JMF 30] (puzzle: Sensor v3, turn-off variant 2) |  |  | 33.1 nM |  | apparent KD of MS2 coat protein [3]: 29.5 nM; apparent KD of MS2 coat protein [4]: 26 nM |
| UUUAAUUUUUUUUUUUUACAAGCUUUUUGCUCGUCUUAUACAUGAGGAUCACCCAUGUGAGUGGAAGGUAAAUUAUC [JMF 69] (puzzle: Sensor v3, turn-off variant 2) |  |  | 18 nM |  | apparent KD of MS2 coat protein [3]: 12.6 nM; apparent KD of MS2 coat protein [4]: 11.8 nM |
| UUUAAUUUUUUUUUUUUACAAGCUUUUUGCUCGUCUUAUACAUGAGGAUCACCCAUGUGGGUGAGGAGUAAAUUAUC [JMF 61] (puzzle: Sensor v3, turn-off variant 2) |  |  | 19.1 nM |  | apparent KD of MS2 coat protein [3]: 37.9 nM; apparent KD of MS2 coat protein [4]: 66.7 nM |
| UUUAGUUCAGGAUAUGUAGAUUUUAACAUGAGGAUCACCCAUGUAGAUCCUGAAUUAACUACAGAAGGGAGCAUUU [Mod of Brourd 16 - Jieux - Exclusion 5] (Eterna round: R97, puzzle: Exclusion 5) | 33.6 nM | 18.4 nM |  |  |  |
| UUUAGUUCAGGAUAUGUAGAUUUUAACAUGAGGAUCACCCAUGUAGAUCCUGAUCCUGCUACAGAAGGGAAAAUUU [Mat - Exclusion 5 - Eli Mod - D9] (Eterna round: R97, puzzle: Exclusion 5) | 24.4 nM | 25.6 nM |  |  |  |
| UUUAUAUAGUAAGGAUAUGUAUUAUUUCUAUCAACAGAAGGUACUGACAUGAGGAUCACCCAUGUUUUAGUGUGGGCAUGUAGU [JMF's solution 97] (Eterna round: R96, puzzle: Exclusion NG 1) |  |  |  | 200 nM |  |
| UUUCAACAUGAGGAUCACCCAUGUCAGGAUAUCAUUUAGCUCAUACACUUACCAUCAUUGAGAAGGGACAUGCU [Colors] (Eterna round: R97, puzzle: Exclusion 1) | 15.7 nM | 19 nM |  |  |  |
| UUUCUCGUUGUGAGGAUAUCGUUUUUGUUUUGGAUCGAGAAGGCACAUGAGGAUCACCCAUGUUUGUUGUGGUU [JR_BMOE4_Sub088] (puzzle: Brourd's mod of Exclusion 4) |  |  | 93.3 nM |  |  |
| UUUGGCAGAGGAUAUACAUGAGGAUCACCCAUGUAUAAGUGGGAUGCGUGCAAAUACUGUAGAAGGCUGCCUCU [Eternabot (L2) Solution 66] (Eterna round: R97, puzzle: Exclusion 3) | 50.1 nM | 73 nM |  |  |  |
| UUUGUAUAGCAAGGAUAUGUUUAAUUAUAGUUGCCUCAUACAUGAGGAUCACCCAUGUUUUACUUACAGAAGGUGCAAUGAUUU [JR_ExcNG2_Sub035] (Eterna round: R96, puzzle: Exclusion NG 2) |  |  |  | 242 nM |  |
| UUUUAACAUGAGGAUCACCCAUGUGAGGAUAUCGAAAUUUAUAUUAAUAUUAAUUUAUCGAGAAGGCACAUUUU [JMF 32] (puzzle: Exclusion 1) |  |  | 108 nM |  |  |
| UUUUAACAUGAGGAUCACCCAUGUGAGGAUAUCGAAAUUUAUAUUAAUAUUAUUAAUUCGAGAAGGCACAUUUU [JMF 37] (puzzle: Exclusion 1) |  |  | 126 nM |  |  |
| UUUUAACAUGAGGAUCACCCAUGUGAGGAUAUCGAAAUUUAUAUUAAUAUUAUUAUUACGAGAAGGCACAUUUU [JMF 42] (puzzle: Exclusion 1) |  |  | 69.3 nM |  |  |
| UUUUAACAUGAGGAUCACCCAUGUGAGGAUAUCGAAAUUUAUAUUAAUAUUAUUUAAACGAGAAGGCACAUUUU [JMF 43] (puzzle: Exclusion 1) |  |  | 70.4 nM |  |  |

Reference: the supplement of paper PMC9170038
